Data as given in article PMC6503924.

Target: Todarodes pacificus hemocyanin (Todarodes pacificus)
Experiment: cryo-EM structure; single-particle cryo-EM of purified hemocyanin, 2.9 mg/ml, 100 mM HEPES pH 7.5, 200 mM CaCl2; asymmetric refinement (no symmetry imposed), overall 5.1 Å; model by rigid-body fitting

Todarodes pacificus hemocyanin (natural protein)
stoichiometry N: 10
